Assay [1] concerns the target T1, CRKL (Homo sapiens, UniProt P46109). Nature of the assay: Phage binding assay on purified recombinant protein. Set-up: The open reading frame of full-length CRKL cDNA (Invitrogen) was PCR-amplified and cloned in a pET28a (Novagen) expression vector; His-tag; made in house; host or cells: E. coli BL21. How it is done:
Phage binding assays on purified proteins were carried out as described (Giordano et al. 2001). Recombinant proteins were coated on microtiter wells as previous described (Cardo-Vila et al., 2003; Smith and Scott, 1993). Briefly, proteins were immobilized on microtiter wells overnight at 4° C. 50 μl of 1 μg/ml in PBS. Wells were washed twice with PBS, blocked with PBS containing 3% BSA for 2 hours at room temperature, and incubated with 10^9 T.U. wild-type tumor-homing phage ([…]; SEQ ID NO:1), scrambled phage ([…] (SEQ ID NO:26), […] (SEQ ID NO:27), […] (SEQ ID NO:29), […] (SEQ ID NO:30)), mutant phage ([…] (SEQ ID NO:25), […] (SEQ ID NO:28)), PSI-derived cyclic phage (CNSTFLQEGMPTSAC; SEQ ID NO:23) or fd-tet phage in 50 μl of PBS containing 1.5% BSA. After 1 hour at room temperature, wells were washed ten times with PBS and phage were recovered by bacterial infection. ELISA with polyclonal anti-CKRL confirmed the presence and concentration of the CKRL recombinant proteins on the wells. […] After 3 hours, binding of CKRL to integrins was detected by using an anti-CKRL antibody followed by an HRP-conjugated anti-rabbit IgG. […]

In assay [2] the target is T1, CRKL. Nature of the assay: Binding assays with recombinant gst-PSI fusion proteins. The source says:
FIG. 3A-D: Receptor binding by peptides. FIG. 3A, the recombinant His-tag CRKL (rCRKL), rCRKL-SH3 (N) domain, and rCRKL-SH3 (C) domain bind to the tumor-homing peptide-[…] (SEQ ID NO:1). FIG. 3B, the recombinant His-tag rCRKL, rCRKL-SH3 (N) domain, and rCRKL-SH3 (C) domain bind to the synthetic peptide NSTFLQEGMPTSA (SEQ ID NO:23) corresponding to a region in the PSI domain. FIG. 3C, recombinant gst fusion protein of the entire PSI domain (residues 22-82. SEQ ID NO: 71-[…]), gst-PSI linear (residues 48-62, SEQ ID NO: 72-TNSTFLQEGMPTSAR), gst-PSI cyclic (residues […], SEQ ID NO: 72-CTNSTFLQEGMPTSARC) were generated for binding assays. Both the linear and the cyclic PSI-derived regions bind to CRKL. FIG. 3D, the binding activity of the tumor-homing peptide to rCRKL-SH3 (C) domain is inhibited by the tumor-homing ([…]; SEQ ID NO:1) peptide, by the PSI-derived (NSTFLQEGMPTSA; SEQ ID NO:23) peptide or tumor-homing phage displaying SEQ ID NO:1. Bars represent mean±standard deviation from triplicate wells.
CRKL mutants in the SH3 domain (carboxyl terminal) were generated by PCR mutagenesis. Primer sets were designed to remove 60 bp (Δ1 and Δ2) and 54 bp (Δ3) and maintain the reading frame. For the PSI domain constructs, cyclic and linear peptide forms of the PSI domain were produced. […] Protein-protein interactions were detected by using an antibody against gst.

Another assay deals with DU145 cells. Nature of the assay: Peptide internalization assay (WST-1 cell viability, annexin-V staining). The note with it: DU145 cells; measured by cell viability and annexin-V. The assay is classed as cell-based, human. The procedure: The internalization capability of the tumor-homing peptide fused through a glycinylglycine bridge to a pro-apoptotic sequence was tested as described Arap et al., 2004; Ellerby et al., 1999; Kolonin et al., 2004; Zurita et al., 2004). The conjugated tumor-homing peptide, […] (SEQ ID NO:67)-D(KLAKLAK)2 or the untargeted control peptide D(KLAKLAK)2 were synthesized and increasing equimolar peptide concentrations were added to the DU145 cells. Cell viability was assayed by the WST-1 reagent (Roche) and annexin-V staining for apoptosis (Zurita et al., 2004; Cardo-Vila et al., 2003). For tumor-homing phage localization studies, cells were incubated with 10^9 T.U. tumor-homing ([…]; SEQ ID NO:1) or a negative control (fd-tet) phage for 6 and 24 hours. Wells were washed with 20 mM glycine to remove non-specific cell surface bound phage and then fixed with 4% paraformaldehyde. The non-permeabilized cells were incubated with rabbit anti-fd bacteriophage antibody (Sigma) for 2 hours at room temperature followed by 1 hour incubation with Cy3-labeled anti-rabbit IgG antibody (Jackson ImmunoResearch). Cells were again fixed with 4% paraformaldehyde and mounted in the presence of DAPI (Vector Laboratories) and images were acquired with an Olympus fluorescence microscope.
On the technique in general: Tetrazolium dyes change colour on reduction, which living cells bring about.

The target in the next assay is T2, rCRKL (Homo sapiens, UniProt P46109).
T2 construct: The open reading frame of full-length CRKL cDNA (Invitrogen) was PCR-amplified and cloned in a pET28a (Novagen) expression vector; His-tag; made in house; host or cells: E. coli BL21
Nature of the assay: Peptide binding assay with recombinant His-tag proteins (ELISA). Particulars: peptide coated on microtiter plates. How it is done:
(§1) Synthetic tumor-homing peptide ([…]; SEQ ID NO:1) or PSI-derived peptide (NSTFLQEGMPTSA; SEQ ID NO:23) were coated on microtiter plates followed by blocking, and washing. The following recombinant His-tag proteins were added to the coated plates: rCRKL, rCRKL-SH2 domain, rCRKL-SH3 (N) domain, and rCRKL-SH3 (C) domain. An unrelated control protein (α2-Heremans-Schmid glycoprotein; AHSG) served as a negative control. The mixtures were incubated, washed, and labeled with the appropriate antibodies. Secondary antibodies conjugated to horse-radish peroxidase (HRP) were added followed by adding TMB substrate (Calbiochem), and analyzed by an automated ELISA reader (Bio-Tek). To determine the inhibitory activity of the tumor-homing peptide, the PSI-derived peptide, or the phage clone displaying the corresponding tumor-homing peptide were incubated with the rCRKL-SH3 (C) domain. Unrelated cyclic peptide sequences and insertless phage (fd-tet) served as negative controls. The admixtures were incubated and added to wells coated with the tumor-homing peptide. After incubation, the wells were washed, labeled with the appropriate antibodies, and processed as above.

The target of the next assay is T3, rCRKL-SH2 domain (Homo sapiens, UniProt P46109).
T3 construct: cDNAs corresponding to each of the SH domains were PCR-amplified and cloned into the Sac I and Xho I restriction sites; His-tag; made in house; host or cells: E. coli BL21
Described as above. The note with it: peptide coated on microtiter plates. How it is done:
as §1

Assay [3] has as its target T4, rCRKL-SH3 (C) domain (Homo sapiens, UniProt P46109).
T4 construct: cDNAs corresponding to each of the SH domains were PCR-amplified and cloned into the Sac I and Xho I restriction sites; His-tag; made in house; host or cells: E. coli BL21
The description is as above. The procedure:
as §1

The next assay deals with T5, rCRKL-SH3 (N) domain (Homo sapiens, UniProt P46109).
T5 construct: cDNAs corresponding to each of the SH domains were PCR-amplified and cloned into the Sac I and Xho I restriction sites; His-tag; made in house; host or cells: E. coli BL21
Described as above. Particulars: peptide coated on microtiter plates. The procedure: as §1

In assay [4] the target is T4, rCRKL-SH3 (C) domain. Description: Inhibition of rCRKL-SH3 (C) domain binding to coated tumor-homing peptide. The note with it: inhibitor pre-incubated with rCRKL-SH3 (C). How it is done: as §1
The subject of assay [5] is human prostate cancer xenografts (DU145-derived). Nature of the assay: Therapy in tumor-bearing mice (tumor volume). The note with it: equimolar amounts, systemically administered, vs untreated or vehicle. The assay is classed as in vivo, nude mice. The source says: Finally, a pilot pre-clinical trial that included four cohorts of size-matched tumor-bearing mice was designed and conducted (FIG. 11). Animals received the following reagents: (i) the synthetic PSI domain-mimic peptide, (ii) the synthetic PSI domain-mimic peptide linked to a pro-apoptotic peptidomimetic (Arap et al., 2004; Ellerby et al., 1999; Kolonin et al., 2004; Zurita et al., 2004) in order to induce targeted apoptosis upon receptor-mediated internalization, (iii) the synthetic pro-apoptotic peptidomimetic alone, or (iv) vehicle alone. All peptides or peptidomimetics were administered at equimolar concentrations.
DU145 tumor-bearing mice were size-matched and divided into individual cohorts (n=4 mice per group). The tumor-homing peptide […] (SEQ ID NO:1) was synthesized fused with the proapoptotic motif D(KLAKLAK)2. Unconjugated peptide […] (SEQ ID NO:1) or D(KLAKLAK)2 served as controls. The synthetic peptides were systemically administered and tumor volumes measured as described (Arap et al., 1998; Arap et al., 2004).

T4 sequence (P46109 235-296 limits assumed): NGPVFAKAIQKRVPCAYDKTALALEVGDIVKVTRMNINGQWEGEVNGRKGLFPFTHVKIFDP
T1 sequence (P46109 whole entry): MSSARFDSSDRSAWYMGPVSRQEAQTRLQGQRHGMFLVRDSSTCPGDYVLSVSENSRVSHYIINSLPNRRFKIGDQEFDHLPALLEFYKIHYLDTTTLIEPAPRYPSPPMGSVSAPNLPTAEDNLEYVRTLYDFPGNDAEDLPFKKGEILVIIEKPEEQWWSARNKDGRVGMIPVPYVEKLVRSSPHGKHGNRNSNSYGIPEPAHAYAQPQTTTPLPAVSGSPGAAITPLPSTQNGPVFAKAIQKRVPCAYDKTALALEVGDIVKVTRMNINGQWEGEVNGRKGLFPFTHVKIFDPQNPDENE
T2 sequence (P46109 whole entry): as above
T3 sequence (P46109 14-102 limits assumed): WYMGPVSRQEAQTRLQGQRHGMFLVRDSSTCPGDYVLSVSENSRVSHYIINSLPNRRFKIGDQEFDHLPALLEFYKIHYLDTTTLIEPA
T5 sequence (P46109 123-183 limits assumed): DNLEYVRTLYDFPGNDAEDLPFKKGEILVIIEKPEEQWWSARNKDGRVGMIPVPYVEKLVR

As for CNSTFLQEGMPTSAC [PSI-derived phage], at CRKL [1], the “phage binding to recombinant CRKL” value was “bind”.
In the case of CTNSTFLQEGMPTSARC [gst-PSI cyclic], the “binding to CRKL” value on CRKL [2] was “bind”.
In the case of “TNSTFLQEGMPTSAR (left off: a dimerising Fc or GST; large carriers; small tags and cut ends) [gst-PSI linear, recombinant gst fusion of linear PSI region, residues 48-62]”, the “binding to CRKL” value with CRKL [2] is “bind”.
With “YRCTLNSPFFWEDMTHECHA (listed as Homo sapiens) [Peptide 6]”, the internalization entry in the assay on DU145 cells is given as “mediates ligand-directed internalization”. In addition, in the assay with rCRKL, the “binding to rCRKL” value is on record as “bound”. Besides, the “binding through the SH2 domain” value with rCRKL-SH2 domain was “little to no binding”. The “binding attributes to the CRKL-SH3 (C) domain (site-directed mutagenesis)” value with rCRKL-SH3 (C) domain [3] is “dependent on the Pro residue and on the cyclic Cys-Cys disulfide bridge”. Besides, the “binding to rCRKL-SH3 (C) domain” value in the assay with rCRKL-SH3 (C) domain [3] (peptide coated on microtiter plates) was “bind”. Moreover, the “binding to rCRKL-SH3 (N) domain” value with rCRKL-SH3 (N) domain is given as “bind”. For the same sequence, the “inhibition of binding of the tumor-homing peptide to rCRKL-SH3 (C) domain” value in the assay with rCRKL-SH3 (C) domain [4] was “inhibited”. In addition, the figures for the “tumor growth / tumor volume” value in [5] and in [5] (listed as PSI domain-mimic peptide) were “no differences in tumor volume” and “no detectable effect”, respectively.
